Measurements taken from the supplement of paper PMC10724198.
± gives the standard deviation of the averaged measurements.

Tested on: Saccharomyces cerevisiae
Assay: protein stability index of tFT-peptide fusion (C-terminal peptide) (PSI (0-1 scale)); higher = more stable (slower turnover)
Conditions: genetic background: wild type; temperature: 37 C
Protocol: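 MPS profiling in S. cerevisiae of the tFT-X12 degron library: putative degron peptides plus stable controls, 12 aa, fused to the C-terminus of a sfGFP-mCherry timer. Cells are FACS-sorted into 8 mCherry/sfGFP bins and deep-sequenced. PSI runs from 0 (unstable) to 1 (stable). Backgrounds are wild type, das1Δ and doa10Δ at 30 °C, and wild type, das1Δ, cdc34-1 and cdc53-1 at 37 °C; 2-3 technical replicates each.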

| Sequence | protein stability index |
| --- | --- |
| VVLVGVAVCRLG | 0.46 ± 0.0018 |
| VVNFLVFRFFCI | 0.39 ± 0.018 |
| VVPYPFLTLLNI | 0.492 ± 0.0084 |
| VVRVSFSFCLSC | 0.425 ± 0.024 |
| VVSVVVLVNSRG | 0.518 ± 0.0064 |
| VVVLLLVVWFCL | 0.391 ± 0.019 |
| VVVWLFRIKSNV | 0.497 ± 0.026 |
| VWGLWRLCVWGV | 0.477 ± 0.0086 |
| VWLFSWSVVGGT | 0.5069 ± 0.00074 |
| VWSVSVTIVGRR | 0.507 ± 0.0052 |
| VYFASCVVLLMV | 0.251 ± 0.015 |
| VYLVVLYLRYFA | 0.306 ± 0.023 |
| VYVYTIRVRWSE | 0.269 ± 0.03 |
| WAFVVCGAVFFW | 0.412 ± 0.022 |
| WCLLGVPVRVVV | 0.441 ± 0.0045 |
| WCVCVSMRMIAI | 0.159 ± 0.013 |
| WFIFATFLILVT | 0.182 ± 0.012 |
| WFLVLLFFWFLL | 0.566 ± 0.0068 |
| WFYLLFVLFGLV | 0.51 ± 0.024 |
| WHFPCPPLPCPV | 0.4714 ± 0.0025 |
| WILLVLACFSSG | 0.361 ± 0.017 |
| WLGCVLIGWHVL | 0.364 ± 0.052 |
| WLKLWSYVTHLG | 0.581 ± 0.017 |
| WSLRFRRMMLRC | 0.16 ± 0.024 |

| Sequence | protein stability index |
| --- | --- |
| WVVVARIFSVFF | 0.469 ± 0.038 |
| WVVVKITAHTAT | 0.4 ± 0.0065 |
| WYAGIVFTRVWM | 0.622 ± 0.013 |
| YAFLWCVFYLSF | 0.305 ± 0.0082 |
| YCCDYFMFVLVV | 0.248 ± 0.01 |
| YDLRRIGRIGVG | 0.381 ± 0.026 |
| YFIVVSWFLVCW | 0.168 ± 0.029 |
| YFLFRYIVITVF | 0.06947 ± 0.00069 |
| YFRKDYRKMAQH | 0.453 ± 0.055 |
| YGAGDLTKYFIV | 0.174 ± 0.034 |
| YHFRLLVTCCPC | 0.351 ± 0.015 |
| YLCCFSVAFFLG | 0.317 ± 0.024 |
| YLFDQYDWYKSM | 0.348 ± 0.02 |
| YLLTAFLSAFNP | 0.537 ± 0.02 |
| YLMVSKMSLRIG | 0.516 ± 0.025 |
| YPGMFLQLVWWI | 0.126 ± 0.0019 |
| YPSASLLPLFSC | 0.184 ± 0.016 |
| YQFDGLVFLRLS | 0.6515 ± 0.00071 |
| YRFVWRWIPICA | 0.057 ± 0.026 |
| YRWERIYIGLRL | 0.36 ± 0.0093 |
| YSALHNPPQPVT | 0.6971 ± 0.0062 |
| YTLWFLAWGLVF | 0.36 ± 0.025 |
| YWRNYLVLVCKF | 0.613 ± 0.024 |
| YYLHFRFFIYVF | 0.13 ± 0.0084 |

Tested on: Saccharomyces cerevisiae
Assay: as above
Conditions: genetic background: wild type; temperature: 30 C

| Sequence | protein stability index |
| --- | --- |
| VNFVLTLYPYLV | 0.378 ± 0.014 |
| VPPLPPPGPPTF | 0.699 ± 0.015 |
| VQLLTRLKTPHP | 0.733 ± 0.026 |
| VRDQGWILNMLL | 0.485 ± 0.016 |
| VRICVVLRVCWW | 0.256 ± 0.092 |
| VRINLLFVWFSR | 0.396 ± 0.026 |
| VRLSQVNRLICT | 0.524 ± 0.052 |
| VRRGAVWCCLCG | 0.474 ± 0.011 |
| VRVLAALVLCVV | 0.312 ± 0.0089 |
| VRYCFFWVRAVV | 0.278 ± 0.051 |
| VTGYLSTLTMLC | 0.3832 ± 0.0015 |
| VTWNFIVYVCCF | 0.283 ± 0.011 |
| VVFLWRCRLLLG | 0.164 ± 0.019 |
| VVFRCSSFFCLV | 0.4449 ± 0.002 |
| VVIYWFLPIIFA | 0.23 ± 0.029 |
| VVLGLFCVRMGT | 0.522 ± 0.031 |
| VVLVGVAVCRLG | 0.368 ± 0.011 |
| VVNFLVFRFFCI | 0.285 ± 0.06 |
| VVPYPFLTLLNI | 0.58 ± 0.12 |
| VVRVSFSFCLSC | 0.373 ± 0.015 |
| VVSVVVLVNSRG | 0.441 ± 0.017 |
| VVVLLLVVWFCL | 0.379 ± 0.04 |

| Sequence | protein stability index |
| --- | --- |
| VVVWLFRIKSNV | 0.425 ± 0.025 |
| VWGLWRLCVWGV | 0.371 ± 0.057 |
| VWLFSWSVVGGT | 0.433 ± 0.02 |
| VWSVSVTIVGRR | 0.458 ± 0.011 |
| VYFASCVVLLMV | 0.264 ± 0.029 |
| VYLVVLYLRYFA | 0.227 ± 0.037 |
| VYVYTIRVRWSE | 0.277 ± 0.015 |
| WAFVVCGAVFFW | 0.358 ± 0.019 |
| WCLLGVPVRVVV | 0.425 ± 0.033 |
| WCVCVSMRMIAI | 0.165 ± 0.0094 |
| WFIFATFLILVT | 0.193 ± 0.051 |
| WFLVLLFFWFLL | 0.48 ± 0.073 |
| WFYLLFVLFGLV | 0.426 ± 0.023 |
| WHFPCPPLPCPV | 0.4846 ± 0.0013 |
| WILLVLACFSSG | 0.325 ± 0.0036 |
| WLGCVLIGWHVL | 0.27 ± 0.011 |
| WLKLWSYVTHLG | 0.477 ± 0.036 |
| WSLRFRRMMLRC | 0.283 ± 0.015 |
| WVVVARIFSVFF | 0.515 ± 0.12 |
| WVVVKITAHTAT | 0.326 ± 0.016 |
| WYAGIVFTRVWM | 0.5 ± 0.0095 |
| YAFLWCVFYLSF | 0.289 ± 0.021 |

| Sequence | protein stability index |
| --- | --- |
| YCCDYFMFVLVV | 0.255 ± 0.033 |
| YDLRRIGRIGVG | 0.363 ± 0.016 |
| YFIVVSWFLVCW | 0.184 ± 0.005 |
| YFLFRYIVITVF | 0.0865 ± 0.032 |
| YFRKDYRKMAQH | 0.255 ± 0.15 |
| YGAGDLTKYFIV | 0.106 ± 0.016 |
| YHFRLLVTCCPC | 0.321 ± 0.0033 |
| YLCCFSVAFFLG | 0.257 ± 0.072 |
| YLFDQYDWYKSM | 0.368 ± 0.081 |
| YLLTAFLSAFNP | 0.495 ± 0.11 |
| YLMVSKMSLRIG | 0.401 ± 0.0052 |
| YPGMFLQLVWWI | 0.176 ± 0.026 |
| YPSASLLPLFSC | 0.171 ± 0.004 |
| YQFDGLVFLRLS | 0.4808 ± 0.0011 |
| YRFVWRWIPICA | 0.0631 ± 0.022 |
| YRWERIYIGLRL | 0.291 ± 0.024 |
| YSALHNPPQPVT | 0.736 ± 0.02 |
| YTLWFLAWGLVF | 0.315 ± 0.023 |
| YWRNYLVLVCKF | 0.359 ± 0.065 |
| YYLHFRFFIYVF | 0.113 ± 0.031 |

Tested on: Saccharomyces cerevisiae
Assay: as above
Conditions: genetic background: das1 deletion; temperature: 30 C
Protocol: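 MPS profiling in S. cerevisiae of the yeast C-terminome library: the last 12 aa of each annotated ORF are fused to the C-terminus of a sfGFP-mCherry timer, after a GGGS linker. Cells are FACS-sorted into 8 mCherry/sfGFP bins and deep-sequenced. PSI runs from 0 (unstable) to 1 (stable); wild type and das1Δ backgrounds, two technical replicates each.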

| Sequence | protein stability index |
| --- | --- |
| ADIMEKVHKWFA [PSE1 C-terminal 12 aa] | 0.68931 ± 0.00046 |
| ADKELSFEINVK [BRR2 C-terminal 12 aa] | 0.6946 ± 0.003 |
| AFSDLSTLENAS [ATG42 C-terminal 12 aa] | 0.7267 ± 0.001 |
| AFTRRRFMNKSL [ARC18 C-terminal 12 aa] | 0.69 ± 0.012 |
| AGIHPDRAKLLK [NOP6 C-terminal 12 aa] | 0.68 ± 0.013 |
| AGTENDEEEFNI [PSF2 C-terminal 12 aa] | 0.674 ± 0.018 |
| AINYIGNIRRNE [ACO2 C-terminal 12 aa] | 0.7288 ± 0.0043 |
| AIRTRKFDNNKR [RED1 C-terminal 12 aa] | 0.716 ± 0.046 |
| AIWIFYIDFRVH [YCL021W-A C-terminal 12 aa] | 0.227 ± 0.024 |
| AKDAFTSTLPTH [GFD2 C-terminal 12 aa] | 0.7 ± 0.017 |
| AKDYLLDLAGQA [YBR085C-A C-terminal 12 aa] | 0.71316 ± 0.00065 |

Same assay, conditions: genetic background: wild type; temperature: 30 C

| Sequence | protein stability index |
| --- | --- |
| ADIMEKVHKWFA [PSE1 C-terminal 12 aa] | 0.6649 ± 0.0041 |
| ADKELSFEINVK [BRR2 C-terminal 12 aa] | 0.741 ± 0.066 |
| AFSDLSTLENAS [ATG42 C-terminal 12 aa] | 0.723 ± 0.03 |
| AFTRRRFMNKSL [ARC18 C-terminal 12 aa] | 0.485 ± 0.034 |
| AGIHPDRAKLLK [NOP6 C-terminal 12 aa] | 0.6934 ± 0.0056 |
| AGTENDEEEFNI [PSF2 C-terminal 12 aa] | 0.672 ± 0.044 |
| AINYIGNIRRNE [ACO2 C-terminal 12 aa] | 0.727 ± 0.048 |
| AIRTRKFDNNKR [RED1 C-terminal 12 aa] | 0.6648 ± 0.0027 |
| AIWIFYIDFRVH [YCL021W-A C-terminal 12 aa] | 0.201 ± 0.011 |
| AKDAFTSTLPTH [GFD2 C-terminal 12 aa] | 0.716 ± 0.021 |
| AKDYLLDLAGQA [YBR085C-A C-terminal 12 aa] | 0.659 ± 0.012 |
